{"source": "the Immune Epitope Database (IEDB)", "key": {"HLA-A*01:01": {"molecular_target": "HLA-A*01:01", "assay": "IEDB peptide-MHC binding, purified MHC/competitive/radioactivity; filed as Kd, often an IC50 or EC50 that approximates it; ≥ and ≤ were set here for values at or beyond the usual limits of such assays"}, "HLA-A*30:02": {"molecular_target": "HLA-A*30:02", "assay": "IEDB peptide-MHC binding, purified MHC/competitive/radioactivity; filed as Kd, often an IC50 or EC50 that approximates it; ≥ and ≤ were set here for values at or beyond the usual limits of such assays"}, "HLA-A*30:01": {"molecular_target": "HLA-A*30:01", "assay": "IEDB peptide-MHC binding, purified MHC/competitive/radioactivity; filed as Kd, often an IC50 or EC50 that approximates it; ≥ and ≤ were set here for values at or beyond the usual limits of such assays"}, "HLA-A*32:01": {"molecular_target": "HLA-A*32:01", "assay": "IEDB peptide-MHC binding, purified MHC/competitive/radioactivity; filed as Kd, often an IC50 or EC50 that approximates it; ≥ and ≤ were set here for values at or beyond the usual limits of such assays"}, "HLA-A*29:02": {"molecular_target": "HLA-A*29:02", "assay": "IEDB peptide-MHC binding, purified MHC/competitive/radioactivity; filed as Kd, often an IC50 or EC50 that approximates it; ≥ and ≤ were set here for values at or beyond the usual limits of such assays"}, "HLA-A*26:01": {"molecular_target": "HLA-A*26:01", "assay": "IEDB peptide-MHC binding, purified MHC/competitive/radioactivity; filed as Kd, often an IC50 or EC50 that approximates it; ≥ and ≤ were set here for values at or beyond the usual limits of such assays"}, "HLA-A*24:02": {"molecular_target": "HLA-A*24:02", "assay": "IEDB peptide-MHC binding, purified MHC/competitive/fluorescence; ≥ and ≤ were set here for values at or beyond the usual limits of such assays"}, "HLA-A*11:01": {"molecular_target": "HLA-A*11:01", "assay": "IEDB peptide-MHC binding, purified MHC/competitive/fluorescence; ≥ and ≤ were set here for values at or beyond the usual limits of such assays", "settings": "source organism: Zaire ebolavirus"}, "HLA-B*15:01": {"molecular_target": "HLA-B*15:01", "assay": "IEDB peptide-MHC binding, purified MHC/competitive/radioactivity; filed as Kd, often an IC50 or EC50 that approximates it; ≥ and ≤ were set here for values at or beyond the usual limits of such assays", "settings": "source organism: Dengue virus 3 Martinique/1243/1999"}, "HLA-A*68:01": {"molecular_target": "HLA-A*68:01", "assay": "IEDB peptide-MHC binding, purified MHC/competitive/radioactivity; filed as Kd, often an IC50 or EC50 that approximates it; ≥ and ≤ were set here for values at or beyond the usual limits of such assays", "settings": "source organism: Dengue virus 1 Brazil/97-11/1997"}, "HLA-A*02:01": {"molecular_target": "HLA-A*02:01", "assay": "IEDB peptide-MHC binding, purified MHC/competitive/fluorescence; ≥ and ≤ were set here for values at or beyond the usual limits of such assays"}, "HLA-B*35:01": {"molecular_target": "HLA-B*35:01", "assay": "IEDB peptide-MHC binding, purified MHC/competitive/radioactivity; filed as Kd, often an IC50 or EC50 that approximates it; ≥ and ≤ were set here for values at or beyond the usual limits of such assays", "settings": "source organism: Dengue virus 1 Brazil/97-11/1997"}, "HLA-B*51:01": {"molecular_target": "HLA-B*51:01", "assay": "IEDB peptide-MHC binding, purified MHC/competitive/radioactivity; filed as Kd, often an IC50 or EC50 that approximates it; ≥ and ≤ were set here for values at or beyond the usual limits of such assays", "settings": "source organism: Dengue virus 1 Brazil/97-11/1997"}, "HLA-B*53:01": {"molecular_target": "HLA-B*53:01", "assay": "IEDB peptide-MHC binding, purified MHC/competitive/radioactivity; filed as Kd, often an IC50 or EC50 that approximates it; ≥ and ≤ were set here for values at or beyond the usual limits of such assays", "settings": "source organism: Dengue virus 1 Brazil/97-11/1997"}, "HLA-B*07:02": {"molecular_target": "HLA-B*07:02", "assay": "IEDB peptide-MHC binding, purified MHC/competitive/radioactivity; filed as Kd, often an IC50 or EC50 that approximates it; ≥ and ≤ were set here for values at or beyond the usual limits of such assays", "settings": "source organism: Dengue virus 1 Brazil/97-11/1997"}, "[1]": {"settings": "source organism: Mammarenavirus lassaense"}, "[2]": {"settings": "source organism: Dengue virus 3 Martinique/1243/1999"}, "[3]": {"settings": "source organism: Vaccinia virus WR"}, "[4]": {"settings": "source organism: Lymphocytic choriomeningitis virus (strain Armstrong)"}, "[5]": {"settings": "source organism: Zaire ebolavirus"}, "[6]": {"settings": "source organism: Sudan ebolavirus"}}}
{"sequence": "AAHSARPPPY", "values": [{"measurement": "Kd", "setting": "HLA-A*01:01; [1]", "result": 18800, "unit": "nM"}, {"measurement": "Kd", "setting": "HLA-A*30:02; [1]", "result": 4570, "unit": "nM"}, {"measurement": "Kd", "setting": "HLA-A*30:01; [1]", "result": 114, "unit": "nM"}, {"measurement": "Kd", "setting": "HLA-A*32:01; [1]", "result": 2410, "unit": "nM"}, {"measurement": "Kd", "setting": "HLA-A*29:02; [1]", "result": 272, "unit": "nM"}, {"measurement": "Kd", "setting": "HLA-A*26:01; [1]", "result": 2280, "unit": "nM"}]}
{"sequence": "AGVLARWGTF", "values": [{"measurement": "Kd", "setting": "HLA-A*32:01; [2]", "result": 8420, "unit": "nM"}]}
{"sequence": "AINFKIFNI", "values": [{"measurement": "Kd", "setting": "HLA-A*32:01; [3]", "result": 22.1, "unit": "nM"}]}
{"sequence": "CSANNSHHY", "values": [{"measurement": "Kd", "setting": "HLA-A*01:01; [4]", "result": 10.2, "unit": "nM"}, {"measurement": "Kd", "setting": "HLA-A*30:02; [4]", "result": 10.6, "unit": "nM"}, {"measurement": "Kd", "setting": "HLA-A*30:01; [4]", "result": "≥ 43700", "unit": "nM"}, {"measurement": "Kd", "setting": "HLA-A*32:01; [4]", "result": "≥ 49800", "unit": "nM"}, {"measurement": "Kd", "setting": "HLA-A*29:02; [4]", "result": 522, "unit": "nM"}, {"measurement": "Kd", "setting": "HLA-A*26:01; [4]", "result": 8050, "unit": "nM"}]}
{"sequence": "DFFSSHPLR", "values": [{"measurement": "IC50", "setting": "HLA-A*24:02; [5]", "result": "≥ 124000", "unit": "nM"}]}
{"sequence": "DYGLVSKFM", "values": [{"measurement": "IC50", "setting": "HLA-A*24:02; [3]", "result": 559, "unit": "nM"}]}
{"sequence": "EESASSGKL", "values": [{"measurement": "IC50", "setting": "HLA-A*11:01", "result": "≥ 214000", "unit": "nM"}]}
{"sequence": "EGAAIGLAW", "values": [{"measurement": "IC50", "setting": "HLA-A*24:02; [5]", "result": 2320, "unit": "nM"}]}
{"sequence": "EMCDDTVTY", "values": [{"measurement": "Kd", "setting": "HLA-B*15:01", "result": 99, "unit": "nM"}, {"measurement": "Kd", "setting": "HLA-A*30:02; [2]", "result": "≥ 76900", "unit": "nM"}, {"measurement": "Kd", "setting": "HLA-A*26:01; [2]", "result": 11200, "unit": "nM"}]}
{"sequence": "EQAFYTRVL", "values": [{"measurement": "IC50", "setting": "HLA-A*24:02; [3]", "result": 58800, "unit": "nM"}]}
{"sequence": "EVMRSRWSRK", "values": [{"measurement": "Kd", "setting": "HLA-A*68:01", "result": 8.94, "unit": "nM"}, {"measurement": "Kd", "setting": "HLA-A*32:01; source organism: Dengue virus 1 Brazil/97-11/1997", "result": "≥ 50100", "unit": "nM"}]}
{"sequence": "EWAMEKSSK", "values": [{"measurement": "IC50", "setting": "HLA-A*24:02; source organism: Vaccinia virus", "result": "≥ 382000", "unit": "nM"}]}
{"sequence": "FHKEGAFFL", "values": [{"measurement": "IC50", "setting": "HLA-A*02:01; [5]", "result": "≥ 97800", "unit": "nM"}, {"measurement": "IC50", "setting": "HLA-A*24:02; [5]", "result": 719, "unit": "nM"}]}
{"sequence": "FLFQLNDTI", "values": [{"measurement": "IC50", "setting": "HLA-A*02:01; [6]", "result": 257, "unit": "nM"}, {"measurement": "IC50", "setting": "HLA-A*24:02; [6]", "result": 879, "unit": "nM"}]}
{"sequence": "FPLCLSTTSQ", "values": [{"measurement": "Kd", "setting": "HLA-B*35:01", "result": 514, "unit": "nM"}, {"measurement": "Kd", "setting": "HLA-B*51:01", "result": "≥ 39600", "unit": "nM"}, {"measurement": "Kd", "setting": "HLA-B*53:01", "result": 36.3, "unit": "nM"}, {"measurement": "Kd", "setting": "HLA-B*07:02", "result": 179, "unit": "nM"}]}
{"sequence": "FSRENSLSGV", "values": [{"measurement": "Kd", "setting": "HLA-B*51:01", "result": 7580, "unit": "nM"}]}
